{"source": "patent US6303637A", "about": "“Heterocyclic potassium channel inhibitors” (Merck & Co., Inc., priority 1999, dated 2001)", "origin": "cited, not measured here", "target": "T1, Kv 1.3 channels (Homo sapiens, UniProt P22001)", "T1 construct": "expressed in transfected cells; host or cells: CHO cells", "T1 sequence (P22001 whole entry)": "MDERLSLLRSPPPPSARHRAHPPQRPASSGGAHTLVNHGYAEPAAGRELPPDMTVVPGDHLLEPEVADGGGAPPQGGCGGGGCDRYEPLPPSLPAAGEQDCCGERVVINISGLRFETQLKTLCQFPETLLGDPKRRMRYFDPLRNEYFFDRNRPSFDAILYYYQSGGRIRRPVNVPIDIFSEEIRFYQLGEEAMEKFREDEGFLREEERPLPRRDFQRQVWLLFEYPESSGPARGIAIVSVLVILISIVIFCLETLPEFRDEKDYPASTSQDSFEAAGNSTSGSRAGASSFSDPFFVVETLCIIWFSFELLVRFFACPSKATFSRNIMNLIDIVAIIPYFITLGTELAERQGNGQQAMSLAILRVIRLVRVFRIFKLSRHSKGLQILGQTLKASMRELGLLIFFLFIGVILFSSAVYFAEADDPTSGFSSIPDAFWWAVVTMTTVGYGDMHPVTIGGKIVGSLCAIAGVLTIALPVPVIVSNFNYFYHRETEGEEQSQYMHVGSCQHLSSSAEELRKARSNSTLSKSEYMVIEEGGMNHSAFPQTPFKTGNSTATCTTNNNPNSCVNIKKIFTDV", "details": "margatoxin used at saturating concentration to establish the efflux window; read-out: IC50 (blocker of Kv 1.3 channels)", "data": [{"substance": "margatoxin (TIINVKCTSPKQCLPPCKAQFGQSAGAKCMNGKCKCYPH; UniProt P40755 1-39, looked up)", "values": [{"measurement": "IC50", "result": 0.1, "unit": "nM"}]}]}
